Consider one molecule from US20050118668A1 (WISCONSIN ALUMNI RESEARCH FOUNDATION, published 2005).

For the assay, the target named is T1, T4moD (UniProt Q00459 2-103).
T1 construct: also called 11.6 kDa effector protein of the toluene-4-monooxygenase complex
T1 sequence: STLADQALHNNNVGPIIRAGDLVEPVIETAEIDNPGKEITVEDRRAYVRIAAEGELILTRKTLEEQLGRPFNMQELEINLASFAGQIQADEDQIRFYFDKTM
Description: fluorescence anisotropy titration of 0.97 nM apo-fACP with T4moD. Background: Fluorescence polarisation rises when a labelled molecule tumbles more slowly, as on binding a larger partner.

B1: apo-fACP (other)
chain: STIEERVKKIIGEQLGVKQEEVTNNASFVEDLGADSLDTVELVMALEEEFDTEIPDEEAEKITTVQAAIDYINGHQA
notes: mature; also called fACP (apo form, lacking phosphopantetheine)
As to B1, the binding result is “no binding”.
